# Paper PMC9972587, “SIRT2-PFKP interaction dysregulates phagocytosis in macrophages with acute ethanol-exposure” (Frontiers in Immunology, 2022)
# T1: Human recombinant PFKP protein (His and GST tag) (human, UniProt Q01813 1-784)
# T1 construct: Phosphofructokinase, platelet isoform (PFKP), human, recombinant; also called human PFKP protein; source: bought: Sino Biological (CAT# 15003-H20B)
# T1 sequence (looked up): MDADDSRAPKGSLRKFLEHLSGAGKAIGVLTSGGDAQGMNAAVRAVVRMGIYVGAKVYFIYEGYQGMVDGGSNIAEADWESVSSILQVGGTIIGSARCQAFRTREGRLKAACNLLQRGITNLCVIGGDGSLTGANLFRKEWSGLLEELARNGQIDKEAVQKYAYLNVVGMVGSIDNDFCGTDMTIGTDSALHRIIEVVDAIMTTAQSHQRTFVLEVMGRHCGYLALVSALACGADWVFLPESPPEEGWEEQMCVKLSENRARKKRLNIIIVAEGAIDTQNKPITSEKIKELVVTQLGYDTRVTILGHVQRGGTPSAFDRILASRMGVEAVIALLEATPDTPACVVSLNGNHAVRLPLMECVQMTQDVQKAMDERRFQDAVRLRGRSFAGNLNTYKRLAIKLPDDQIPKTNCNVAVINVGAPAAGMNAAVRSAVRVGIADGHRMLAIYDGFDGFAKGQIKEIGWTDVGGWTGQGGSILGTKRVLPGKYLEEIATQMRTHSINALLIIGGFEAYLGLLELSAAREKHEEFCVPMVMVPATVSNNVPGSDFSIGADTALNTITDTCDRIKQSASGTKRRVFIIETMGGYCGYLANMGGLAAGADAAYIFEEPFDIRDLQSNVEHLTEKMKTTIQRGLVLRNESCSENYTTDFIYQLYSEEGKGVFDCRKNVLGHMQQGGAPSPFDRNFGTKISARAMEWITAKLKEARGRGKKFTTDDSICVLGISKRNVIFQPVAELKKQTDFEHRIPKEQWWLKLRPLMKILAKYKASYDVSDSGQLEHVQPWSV
# B1: Recombinant human SIRT2 protein (enzyme, UniProt Q8IXJ6 1-389, looked up)
# chain: MAEPDPSHPLETQAGKVQEAQDSDSDSEGGAAGGEADMDFLRNLFSQTLSLGSQKERLLDELTLEGVARYMQSERCRRVICLVGAGISTSAGIPDFRSPSTGLYDNLEKYHLPYPEAIFEISYFKKHPEPFFALAKELYPGQFKPTICHYFMRLLKDKGLLLRCYTQNIDTLERIAGLEQEDLVEAHGTFYTSHCVSASCRHEYPLSWMKEKIFSEVTPKCEDCQSLVKPDIVFFGESLPARFFSCMQSDFLKVDLLLVMGTSLQVQPFASLISKAPLSTPRLLINKEKAGQSDPFLGMIMGLGGGMDFDSKKAYRDVAWLGECDQGCLALAELLGWKKELEDLVRREHASIDAQSGAGVPNPSTSASPKKSPPPAKDEARTTEREKPQ
# notes: Sirtuin 2 (SIRT2), human, recombinant; also called human SIRT2 ligand; source: bought: Sigma-Aldrich (CAT# SRP0116)
# Target: T1, Human recombinant PFKP protein (His and …)
# Test: SPR; Biacore S200; human SIRT2 immobilised on CM5 chip by amine coupling (10 mM sodium acetate pH 4.0 with 20 uM NAD+); PFKP injected at 15.62-1000 nM, contact time 120 s, 15 uL/minute; running buffer HBS-P+ pH 7.4; steady state equilibrium binding model
# Conditions: both partners purified
binder,measurement,value
B1,Kd,100 nM
